Holding throughout (experiment): fluorescence polarisation
(In general: In fluorescence polarisation assays a small probe gives low polarisation when free and higher when bound to something large.)

In assay [1] the target is FITC-conjugated CD3ε peptide (…).
Assay [2] concerns the target FITC-conjugated PAK1 peptide (…).
For assay [3], the target named is NCK2 full length recombinant protein (WT, tag-free) (mouse, UniProt O55033 1-380).

Where no end group is shown, it is not given here.

In the case of “NCK2 2|3|1 full length recombinant protein (SH3-shuffled, tag-free) (from UniProt O55033)”, in assay [1], the fold decrease of binding against WT NCK2 amounted to 2 fold. Take “NCK2 3|1|2 full length recombinant protein (SH3-shuffled, tag-free) (from UniProt O55033)”: the fold decrease of binding against WT NCK2 in assay [2] was found to be 2 fold. Take “NCK2 3|2|1 full length recombinant protein (SH3-shuffled, tag-free) (from UniProt O55033)”: the fold decrease of binding against WT NCK2 in assay [1] turned out to be 2 fold. Regarding RGQNKERPPPVPNPDY (also: FITC-conjugated, site not given here) [FITC-conjugated CD3ε peptide (RGQNKERPPPVPNPDY)], in assay [3], the binding result is recorded as “binds”. Still for that read-out and setting: to DIQDKPPAPPMRNTST (also: FITC-conjugated, site not given here) [FITC-conjugated PAK1 peptide (DIQDKPPAPPMRNTST)] belongs “binds”.

The values are drawn from paper doi:10.1101/2020.05.18.103002 (bioRxiv, 2020).
